The series can be described thus: yeast display, Sf9 membrane polyspecificity reagent, FACS + sequencing; frameworks hold sequencing errors. The procedure, abridged:
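Genes from sorted yeast were amplified by colony PCR, read by MiSeq 2 × 250 sequencing and filtered on CDR length. These cells carried a synthetic nanobody library in Saccharomyces cerevisiae BJ5465 and were sorted by FACS into low and high (top ~1%) gates on anti-HA and streptavidin fluorescence. Polyreactivity is labelled according to the gate of origin.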
Regarding “QVQLVESGGGLVQAGGSLRLSCAASGSTSYVYAMGWYRQAPGKERELVAAISGSGGRTYYADSVKGRFTISRDNAKNTVYLQMNSLKPEDTAVYYCNALPRPSYPFDYWGQGTQVTVSS”, the “polyreactivity (PSR sort gate)” value is “high polyreactivity”.

Regarding “QVQLVESGGGLVQAGGSLRLSCAASGSTVEYNAMGGYRPATGKERELVAAITSGGSTTYADSVKGRFTISRDNAKNTVYLQMNSLKPEDTAVYYCAAVGRRVSAWYYYWGQGTQVTVSS”, the “polyreactivity (PSR sort gate)” value is recorded as “high polyreactivity”.

For the sequence “QVQLVESGGGLVQAGGSLRLSCAASGSTVNKYAMGWYRHAPGKERELVAAITTSGGRTYYADSVKGRFTISRDNAKNTVYLQMNSLKPEDTAVYYCNARIRRNYAYPKGESWGQGTQVTVSS”, the “polyreactivity (PSR sort gate)” value is listed as “high polyreactivity”.

As to “QVQLVESGGGLVQAGGSLRLSCAASGSTVRRYAMGWYRQAPGKERELVATISSGGRTNYADSVKGRFTISRDNAKNTVYLEMNSLKPEDTGVYYCAARPYFYERSAGYYWGQGTQVTVSS”, the “polyreactivity (PSR sort gate)” value is on record as “high polyreactivity”.

Regarding “QVQLVESGGGLVQAGGSLRLSCAASGSTVRYNAMGWYRQARGIERELVAAISYGSSTNYADSVKGRFTISRDNAKNTVFLQMNSLKPEDTAVYYCAAQPGYYDDFYYWGHGTQVTVSS”, the “polyreactivity (PSR sort gate)” value was “low polyreactivity”.

In the case of “QVQLVESGGGLVQAGGSLRLSCAASGSTVYASVMGWSRQAPGKARELVAAITSAGSTDYADSVKGRFTISRDNAKNTVYLQMNSRKPEDTAVYYCAADAYTDSPYYKYDYWGQGTQVTVSS”, the “polyreactivity (PSR sort gate)” value was “low polyreactivity”.

Regarding “QVQLVESGGGLVQAGGSLRLSCAASGSTWVYAMGWYRQAPGKERELFAAITVSGGSTYYADSVKGRFTISRDNAKNTVYLQMNSQKPEDPAVYYCAAYDSYRKFKYLGQGTQVTVSS”, the “polyreactivity (PSR sort gate)” value is “high polyreactivity”.

On to “QVQLVESGGGLVQAGGSLRLSCAASGSTYAAKTMGWYRQAPGKERELVAAITVRGGSTYYADSVKGRFTISRDNAKNTVYLQMNSLKPEDTAVYYCATRHPARRDYWGQGTQVTVSS”, for which the “polyreactivity (PSR sort gate)” value is reported as “low polyreactivity”.

For “QVQLVESGGGLVQAGGSLRLSCAASGSTYAVNVMGWYRQAPGKERELVATITYRDGRTYYADSVKGRFTISRDNAKNTVYLQMNSLKPEDTAVYYCAADAYRAQGDYWGQGTQVTVSS”, the “polyreactivity (PSR sort gate)” value is given as “low polyreactivity”.

In the case of “QVQLVESGGGLVQAGGSLRLSCAASGSTYEIYAMGWYRQAPGKDRELVAAISSGGSTNYADSVKGRFTISRDNAKNTVYLQMNSLKPEDTAVYYCVYAIQFDYWGQGTQVTVSS”, the “polyreactivity (PSR sort gate)” value is “low polyreactivity”.

Take “QVQLVESGGGLVQAGGSLRLSCAASGSTYENAMGWYRQAPGKERELVAVISRSGGSTYYADSVKGRFTISRDNAKNTVYLQMNSLNPEDTAVYYCATVYSAWSWVHGYYVAMDYWGQGTQVTVSS”: the “polyreactivity (PSR sort gate)” value is given as “high polyreactivity”.

Take “QVQLVESGGGLVQAGGSLRLSCAASGSTYGRNARGWYRQAPGKERELVAAISSGGRTYYADSVKGRFTISRDNAKNTVYLQMNSLKPEDTAVYYCARDDYGTLVQLYGRGFNYWGQGTQVTVSS”: the “polyreactivity (PSR sort gate)” value is on record as “low polyreactivity”.

Regarding “QVQLVESGGGLVQAGGSLRLSCAASGSTYNAMGWYRQAPGKEREFVAAISWGGGSTYYADSVKGRFTISRDNAKNTVYLQMNSLKPEDTAVYYCAKTPNYRIRHDYWGQGTQVTVSS”, the “polyreactivity (PSR sort gate)” value is listed as “low polyreactivity”.

As to “QVQLVESGGGLVQAGGSLRLSCAASGSTYPSYAMGWYRQAPGKERELVAAINSGGSTNYADSVKGRFTISRDNAKNTVYLQMNSLKPEDTAVYYCAASVYGQHAGPGRWYTFYYWGQGTQVTVSS”, the “polyreactivity (PSR sort gate)” value is “low polyreactivity”.

Turning to “QVQLVESGGGLVQAGGSLRLSCAASGSTYVSNAMGWYRQAPGKERELVAAISKSGGSTYYGDSVKGRFSISRDTAKNTVYLQMNSLKPEDTAVYYCAASPARYWYGGKEYDYWGQGTQVTVSS”, the “polyreactivity (PSR sort gate)” value is given as “high polyreactivity”.

As to “QVQLVESGGGLVQAGGSLRLSCAASGSTYYNAMGWYRQAPRKERELVAAIRFRSGSTYYADSVKGRFTISRDNAKITVYFQMNSLKPEDTAVYYCAADNKRSWRYAYNYWGQGTQVTVSS”, the “polyreactivity (PSR sort gate)” value is “high polyreactivity”.

For “QVQLVESGGGLVQAGGSLRLSCAASGSTYYRYTMGSYRQAPGKERELLAAITSGGGTDYADSVKGRFTISRDNAKNTVYLQMNSLKPEDTAVYYCAAEGSWYSYPDYDYWGQGTQVTVSS”, the “polyreactivity (PSR sort gate)” value was “low polyreactivity”.

As for “QVQLVESGGGLVQAGGSLRLSCAASGSTYYTYAMGWYRQAPGKERELVAAITYSDGDTYYADSVKGRFTISRDNAKHTVYLQMNSLKPEDTAVYYCAADYQGQPGTGNLEYWGQGTQVTVSS”, the “polyreactivity (PSR sort gate)” value was “low polyreactivity”.

With “QVQLVESGGGLVQAGGSLRLSCAASGSTYYYNAMGWYRQAPGKERELVAAIRTSGGRTYYADSVKGRFTISRDNAKNTVFLQMMSLKPEDTAVYFCADDGTDVHYTYDYWGQGTLVTVSS”, the “polyreactivity (PSR sort gate)” value is “low polyreactivity”.

“QVQLVESGGGLVQAGGSLRLSCAASGSYLRYYAMGWYRQAAGKERELVAAISRSVTNTYYADSVKGRFTISRDYAKNTVYLQMNSLKPEDTAVDYCARVQYVRNVQYRYGGWYTRYYWGQGTQVTVSS”: the “polyreactivity (PSR sort gate)” value is listed as “high polyreactivity”.

As for “QVQLVESGGGLVQAGGSLRLSCAASGSYLRYYAMGWYRQAPGKERELVAAISRSGTNTYYADSVKGRFTISRDNAKNTVYLQMNSLKPEDTAVYYCAARSWKRRVGRDYWGQGTQVTVSS”, the “polyreactivity (PSR sort gate)” value was “high polyreactivity”.

On to “QVQLVESGGGLVQAGGSLRLSCAASGTFAGNAMGWYRQAPGKERELVAAINSGGSTNYADSVKGRFTISRDNAKNTVYLQMKSLKPEDTAVYYCAADSVWSPVDYDYWGQGTQVTVSS”, for which the “polyreactivity (PSR sort gate)” value is on record as “low polyreactivity”.

As to “QVQLVESGGGLVQAGGSLRLSCAASGTFFGYAMGWYRQAPGKERELVAAITSGGSTYYADSVKGRFTISRDNAKNTVYLQMNSLKPEDTAVYYCARVYSRWSYRYDYWGQGTQVTVSS”, the “polyreactivity (PSR sort gate)” value is “low polyreactivity”.

Regarding “QVQLVESGGGLVQAGGSLRLSCAASGTFQSNAMGRYRPAPGKERELVAAITSGGSTNYADSVKGRFTISRDNAKNTVYLQMNSLKPEDTAVYYCAAVRRYRASRGSLYYYWGLGTQVTVSS”, the “polyreactivity (PSR sort gate)” value is reported as “high polyreactivity”.

Regarding “QVQLVESGGGLVQAGGSLRLSCAASGTFSQYAMGWYRQAPGKERELVAAISQGGGSTYYADSVKGRFTISRDNAKNTVYLQMNSLKPEDTAVYYCARSRSYWGIVYGRYDYWGQGTQVTVSS”, the “polyreactivity (PSR sort gate)” value was “high polyreactivity”.

In the case of “QVQLVESGGGLVQAGGSLRLSCAASGTFVTYMGWYRQAPGKERELVAAIRNGGSTNYADSVKGRFTISRDKAKNTVYLQMNSLKPEDTAVYYCAADRAGSIMNYWGQGTQVTVSS”, the “polyreactivity (PSR sort gate)” value is listed as “low polyreactivity”.

Regarding “QVQLVESGGGLVQAGGSLRLSCAASGTFYGNTMGWYRRPPGKERELVAVISIDGSTNYADSVKGRFTISRDNAKNTVYLQMNSLKPEDTAVYYCAADYWRQFRDYDYWGQGTQVTVSS”, the “polyreactivity (PSR sort gate)” value was “low polyreactivity”.

With “QVQLVESGGGLVQAGGSLRLSCAASGTFYWNVMGWYRQAPGKEREFVASITLSGTSTYYADSVKVRFTISRDNAKNTVYLQMNSLKPEDTAVYYCAVAARWPAPVPHYYYWGQGTQVTVSS”, the “polyreactivity (PSR sort gate)” value is reported as “low polyreactivity”.

As to “QVQLVESGGGLVQAGGSLRLSCAASGTIFGSNAMGWYRQAPGKERELVAAISWRGGRTYYADSVKGRFSISRDYAKNTVYLQMYSLKPVETAVYYCAKRWRRRFVDVWSLYDYWGQGTQVTVSS”, the “polyreactivity (PSR sort gate)” value is reported as “low polyreactivity”.

In the case of “QVQLVESGGGLVQAGGSLRLSCAASGTIFKSNSMGWYRQAPGKERELVAAISNGGITNYADSVKGRFTISRDNAKNTVYLQMNSLKPEDTAVYYCATSDVREIWVDYWGQGTQVTVSS”, the “polyreactivity (PSR sort gate)” value is “low polyreactivity”.

For the sequence “QVQLVESGGGLVQAGGSLRLSCAASGTIFLANAMGWYRQAPEKERELVAAINSGDNSYYADSVKGRFTISRDNAKITVYLQINSLKPEDTAVYYCAAEYTGYFYAYEYWGQGSQVTVSS”, the “polyreactivity (PSR sort gate)” value is “high polyreactivity”.

For “QVQLVESGGGLVQAGGSLRLSCAASGTIFRGNAMGWYRQAPGTERELVAAINKSGGSTYYADSVKGRFTISRDNAKNTVYLQMNSLKPEDTAVYYCAAVYKRLQPYGYWGQGTQVTVSS”, the “polyreactivity (PSR sort gate)” value was “high polyreactivity”.

With “QVQLVESGGGLVQAGGSLRLSCAASGTIFRRSAMGWDRQAPGKERELVATITSTDSTNYADSVKGRFTISRDNAKNTVYLQMNSLKPEDTAVYYCAKRPYHYRRNSEYYYWGQGTQVTVSS”, the “polyreactivity (PSR sort gate)” value is listed as “low polyreactivity”.

Turning to “QVQLVESGGGLVQAGGSLRLSCAASGTIFSLYAMGWYRQAHGKERELVAAISGSGSSTHYADSVKGRFTISRDNAKNTVYLQMNSLKPEDSAVYYCAATYWTNSYYYWGQGTQVTVSS”, the “polyreactivity (PSR sort gate)” value was “low polyreactivity”.

Consider “QVQLVESGGGLVQAGGSLRLSCAASGTIFTINAMGWYRQAAGKERELVAAISWSGAHTYYADSVKGRFTISRDNAKNTVFLQMNSLKPEDTAVYYCATGYNYLERNTGYFHRFDYWGQGTQVTVSS”, for which the “polyreactivity (PSR sort gate)” value was “low polyreactivity”.

As for “QVQLVESGGGLVQAGGSLRLSCAASGTIFVLYAMGWYRQAPGKERELVAAITTGGGTNYADSVKGRFTISRDNEKNTVYLQMNRLKPEDTAVYYCAADTGWYDDWTHDYWGQGTQVTVSS”, the “polyreactivity (PSR sort gate)” value is “low polyreactivity”.

As to “QVQLVESGGGLVQAGGSLRLSCAASGTIYVTNGMGWYRQAPGKERELVAVISWGGGNTYYADSVKRRFTISRDNAKNTVYLQMNILKPEDTAVYYCAADPISEFYWGVKDRYDYWGQGTQVTVSS”, the “polyreactivity (PSR sort gate)” value was “low polyreactivity”.

As for “QVQLVESGGGLVQAGGSLRLSCAASGTLSRYAMGWYIQAPGKERELVAAISWTGGSTYYADSVKGRFTISRDNAKYTVYLQMNSLKPEDTAVYYCNGAWRLRGDATYGYWGQGTQVTVSS”, the “polyreactivity (PSR sort gate)” value is on record as “high polyreactivity”.

On to “QVQLVESGGGLVQAGGSLRLSCAASGTSGYYAMGWYRQAPGKERELVAGISIGGSTNYADSVKGRFTISRDNAKNTVYLQMNSLKPEDTAVYYCAVDGYVAFSPDRNNYWGQGTQVTLSS”, for which the “polyreactivity (PSR sort gate)” value is reported as “low polyreactivity”.

With “QVQLVESGGGLVQAGGSLRLSCAASGTTFDSYAMGWYRQAPGKERELVPAITSSASTNYADSVKGRFTISRDNAKNTVYLQMNSLKPEDNAVYYCYADAYRLSFGGFTSDDEFVYWGLGTQVTVSS”, the “polyreactivity (PSR sort gate)” value is listed as “high polyreactivity”.

As for “QVQLVESGGGLVQAGGSLRLSCAASGTTFDVYAMGWSRQAPGKERELVAAITSGGTTNYADSVKGRFTISRDNAKNPVFFQMNSLKPEDTAVYYCAKDSRNVYWDYGYWGQGTQVSVSS”, the “polyreactivity (PSR sort gate)” value is “low polyreactivity”.

Source of the values: the nanobody polyreactivity screen of Harvey et al. (2022).
